Experimental data taken from patent US20210277119A1 (MARENGO THERAPEUTICS, published 2021).
Positions count from the first letter of the chain named.

B1: A-H.52 (scFv)
scFv: QVQLVQSGAEVKKPGSSVKVSCKASGYSFTLGYIHWVRQAPGQGLEWMGWFFPGSGNIKYNEKFKGRVTITADTSTSTAYMELSSLRSEDTAVYYCAGSYYSYDVLDYWGQGTTVTVSSGGGGSGGGGSGGGGSGGGGSDIQMTQSPSFLSASVGDRVTITCKASQNVGINVVWHQQKPGKAPKALIYSSSHRYSGVPSRFSGSGSGTEFTLTISSLQPEDFATYFCQQFKSYPLTFGQGTKLEIK
notes: Said to be a phage clone and a monovalent scFv; also called phage clone; monovalent scFv
B2: A-H.53 (scFv)
scFv: B1 scFv with T30R, G32T
notes: Called a phage clone; also called phage clone
B3: A-H.54 (scFv)
scFv: B1 scFv with T30H, L31N, G32W
notes: as for B2

Key:
[1] = molecular target: T1, recombinant protein TCRVB 6-5 (human, UniProt A0A0K0K1A5 22-114, limits assumed, captured on a Biotin CAP sensor chip (biotinylated; site not stated)); assay: SPR, TCRVB 6-5 on Biotin CAP chip, compared with BJM0277
T1 construct: also called TCRVβ 6-5; TCRβ V6-5*01
T1 sequence (TCR beta): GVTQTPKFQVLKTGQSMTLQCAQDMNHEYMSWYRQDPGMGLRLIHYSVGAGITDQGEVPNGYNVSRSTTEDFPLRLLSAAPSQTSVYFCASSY
Experimental: (§1) TCRVB 6-5 at 5 ug/mL was immobilized on a Biotin CAP Series S Sensor Chip to 60 RU. A-H.52 was diluted to 50 nM and then serially diluted two fold. Association was 120 seconds, dissociation was 300 seconds. This assay was run in 1×HBS-EP+ Buffer pH 7.4 and 25 C. The data was fit using a 1:1 binding model. A-H.52 is a phage clones and is a monovalent scFv. A-H.52 has two mutations on CDRH1.
(§2) TCRVB 6-5 at 5 ug/mL was immobilized on a Biotin CAP Series S Sensor Chip to 60 RU. A-H.53 was diluted to 50 nM and then serially diluted two fold. Association was 120 seconds, dissociation was 300 seconds. This assay was run in 1×HBS-EP+ Buffer pH 7.4 and 25 C. The data was fit using a 1:1 binding model. A-H.53 (phage clone) affinity is in the pM range (Table 16).
as §1, with “A-H.54” for “A-H.52”, “model.” for “model. A-H.52 is a phage clones and is a monovalent scFv. A-H.52 has two mutations on CDRH1.”

[2] = molecular target: T1, recombinant protein TCRVB 6-5; assay: SPR, TCRVB 6-5 captured on Biotin CAP chip, analyte from 50 nM in two-fold dilutions, 1:1 model, 25 C
Experimental: as §1, §2
as §1, with “A-H.54” for “A-H.52”, “model.” for “model. A-H.52 is a phage clones and is a monovalent scFv. A-H.52 has two mutations on CDRH1.”

| Binder | fold greater affinity than BJM0277 [1] [fold] | Kd [2] [nM] |
| --- | --- | --- |
| B1 | 20 | 1.76 |
| B2 | 200 | 0.165 |
| B3 | 17 | 2.22 |
